Assay results as given in article PMC12098869, “An mRNA-display derived cyclic peptide scaffold reveals the substrate binding interactions of an N-terminal cysteine oxidase” (Nature Communications, 2025).
“And” between values parts separate entries of the source, which are not always exact repeats. Identical values can stand only once. Where a SMILES comes first, the peptide text is derived from it. Bridges are numbered along the chain shown (N, C = ends). Where no end group is shown, it is not given here. Side-chain parts run from the residue outwards. [ ]: non-standard residue; d: D form. Orn = NCCC[C@H](N)C(=O)O; Dap = NC[C@H](N)C(=O)O

Assays:
[1] = target: T1, human ADO (Homo sapiens, UniProt Q96SZ5); assay: SPR single-cycle kinetic (SCK) binding of cyclic peptides to ADO; conditions: for KD: Supplementary Fig. 4 series
T1 construct: Full-length human ADO (Uniprot ID: Q96SZ5) was cloned; made in house; host or cells: E. coli Rosetta2(DE3)
T1 sequence (Q96SZ5 1-270): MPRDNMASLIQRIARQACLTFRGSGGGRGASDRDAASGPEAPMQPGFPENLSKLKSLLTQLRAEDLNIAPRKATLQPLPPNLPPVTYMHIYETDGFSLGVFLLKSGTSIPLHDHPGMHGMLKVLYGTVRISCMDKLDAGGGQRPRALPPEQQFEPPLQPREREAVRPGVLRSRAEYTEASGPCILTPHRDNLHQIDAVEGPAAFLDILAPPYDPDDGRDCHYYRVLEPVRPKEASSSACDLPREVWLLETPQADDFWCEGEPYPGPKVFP
Description: After six cycles, clear enrichment of several CPs was observed by next-generation sequencing. The most enriched CPs (CP1-8, numbered according to their percentage enrichment in the final selection round) were selected for subsequent analysis (Table 1). CP1, 5, 6 and 7 are related in sequence, while CP2, 3, 4, and 8 are unique compositions (Fig. 1b). These CPs were subsequently produced by solid-phase peptide synthesis (SPPS) and analysed by surface plasmon resonance (SPR) using single cycle kinetic (SCK) analysis to confirm and quantify binding to ADO. ADO could interact with each CP to varying degrees (Supplementary Fig. 4, Table 1, Fig. 1dleft).
SPR measurements were made using a Biacore T200 (Cytiva) instrument and data were analysed using the Biacore Insight Evaluation Software. Biotinylated-ADO was immobilised on a Biotin CAP chip (Cytiva) with a target density of ∼2500–3000 RU and peptide/protein substrates were injected over the chip. Experiments were conducted at 4 °C using both multi-cycle (fit using the equilibrium steady state affinity 1:1 binding model) and single-cycle kinetics mode (fit using a 1:1 binding model). A buffer comprising 20 mM HEPES pH 7.5, 500 mM NaCl, 10 mM DTT, and 0.1% (v/v) tween-20 was used as the running buffer at a flow rate of 50 μL/minute.

[2] = target: T2, 2-aminoethanethiol dioxygenase (ADO), full-length human, N-terminally His-tagged and biotinylated … (human, UniProt Q96SZ5 1-270, biotin (biotinylated during expression, 0.2 mM biotin added)); assay: cell-based or functional assay
T2 sequence (looked up): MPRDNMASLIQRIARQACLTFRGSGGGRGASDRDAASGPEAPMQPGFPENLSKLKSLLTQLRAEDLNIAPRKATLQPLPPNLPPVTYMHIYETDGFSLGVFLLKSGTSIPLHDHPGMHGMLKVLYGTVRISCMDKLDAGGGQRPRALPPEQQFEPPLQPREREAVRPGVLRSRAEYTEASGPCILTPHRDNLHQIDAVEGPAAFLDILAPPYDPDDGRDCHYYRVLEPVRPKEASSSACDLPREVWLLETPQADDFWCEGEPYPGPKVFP

[3] = target: T2, 2-aminoethanethiol dioxygenase (ADO), …; assay: SPR; single cycle kinetic (SCK) analysis, 1:1 binding model; biotinylated ADO immobilised on a Biotin CAP chip (~2500-3000 RU), cyclic peptides injected; 4 °C; 20 mM HEPES pH 7.5, 500 mM NaCl, 10 mM DTT, 0.1% tween-20; 50 μL/minute; conditions: both partners purified
[4] = target: T3, 2-aminoethanethiol dioxygenase (ADO), full-length human, N-terminally His-tagged and biotinylated … (human, UniProt Q96SZ5 1-270, biotin (biotinylated during expression, 0.2 mM biotin added)); assay: SPR; single-cycle kinetics (1:1 binding model); biotinylated ADO immobilised on a Biotin CAP chip (~2500-3000 RU), cyclic peptide injected; Biacore T200, 4 °C; 20 mM HEPES pH 7.5, 500 mM NaCl, 10 mM DTT, 0.1% tween-20; 50 µL/minute; each cell is one of three independent measurements; conditions: both partners purified
T3 construct: 2-aminoethanethiol dioxygenase (ADO), human, UniProt Q96SZ5, full length; Immobilised through its biotin on a Biotin CAP chip for SPR; also called wild type ADO; Biotinylated-ADO; source: E. coli Rosetta2(DE3), purified (Ni-NTA, SEC); not shown: biotinylation tag (from the vector pQE80L-Navi), N-terminal, kept
T3 sequence (looked up): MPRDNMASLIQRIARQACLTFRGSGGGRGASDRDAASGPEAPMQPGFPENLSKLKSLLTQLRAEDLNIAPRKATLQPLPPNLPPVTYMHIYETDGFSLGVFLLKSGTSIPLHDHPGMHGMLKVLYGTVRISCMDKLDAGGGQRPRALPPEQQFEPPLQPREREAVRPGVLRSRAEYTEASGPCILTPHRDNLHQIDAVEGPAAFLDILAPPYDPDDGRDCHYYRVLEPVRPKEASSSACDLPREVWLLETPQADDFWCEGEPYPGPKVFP
In short: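 Biotinylated full-length human ADO was made in E. coli with a His tag, then purified by nickel affinity and gel filtration. It was captured on a Biotin CAP chip at about 2500–3000 RU in a Biacore T200, and cyclic peptides were flowed over it. The run was at 4 °C in HEPES pH 7.5 buffer with 500 mM NaCl, DTT and tween-20, at 50 µL/minute. Kd came from a 1:1 binding fit of single-cycle kinetic sensorgrams, with three independent measurements.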

[5] = Fig. 3c series, geometric mean of a minimum of three independent measurements (n = 3)
[6] = 1:1 binding model, 4 °C, geometric mean of a minimum of three independent measurements (n = 3) with standard error

Molecule: CC[C@H](C)[C@@H]1NC(=O)[C@H](CCCNC(=N)N)NC(=O)[C@H](Cc2ccc(O)cc2)NC(=O)CSC[C@@H](C(=O)N2CCC[C@H]2C(=O)N[C@@H](CS)C(N)=O)NC(=O)[C@H](CC(C)C)NC(=O)[C@H](C(C)C)NC(=O)[C@H](Cc2c[nH]c3ccccc23)NC(=O)[C@H](CO)NC(=O)[C@H](CCCNC(=N)N)NC(=O)[C@H](Cc2ccccc2)NC(=O)[C@H](C(C)C)NC(=O)[C@H](CCCNC(=N)N)NC(=O)[C@H]([C@@H](C)CC)NC1=O [CP2] ({CH2CO}-YRIIRVFRSWVLCPC-NH2; thioether N-13; N-terminus and C-terminus assumed)
- KD ([1]; replicate 1): 6280 nM
- KD ([1]; replicate 2): 5190 nM
- KD ([1]; replicate 3): 4690 nM

Molecule: CC[C@H](C)[C@@H]1NC(=O)[C@H](Cc2ccc(O)cc2)NC(=O)CSC[C@@H](C(N)=O)NC(=O)[C@H](CCC(N)=O)NC(=O)[C@H](CCCNC(=N)N)NC(=O)[C@H](Cc2c[nH]cn2)NC(=O)[C@H](CO)NC(=O)CNC(=O)[C@H](CCCCNC(=O)[C@@H](N)CO)NC(=O)[C@H](Cc2c[nH]c3ccccc23)NC(=O)[C@H](Cc2ccccc2)NC(=O)[C@H]([C@@H](C)O)NC(=O)[C@H](CCCCN)NC(=O)[C@H](C(C)C)NC1=O [CP6-L8K-Ser] ({CH2CO}-YIVKTFWK(Ser)GSHRQC-NH2; thioether N-14)
- Kd [1, 5]: 21 ± 4.9 nM

Molecule: CC[C@H](C)[C@@H]1NC(=O)[C@H](Cc2ccc(O)cc2)NC(=O)CSC[C@@H](C(N)=O)NC(=O)[C@H](CCC(N)=O)NC(=O)[C@H](CCCNC(=N)N)NC(=O)[C@H](Cc2c[nH]cn2)NC(=O)[C@H](CO)NC(=O)CNC(=O)[C@H](CC(C)C)NC(=O)[C@H](Cc2c[nH]c3ccccc23)NC(=O)[C@H](Cc2ccccc2)NC(=O)[C@H]([C@@H](C)O)NC(=O)[C@H](CCCCN)NC(=O)[C@H](C(C)C)NC1=O [CP6] ({CH2CO}-YIVKTFWLGSHRQC-NH2; thioether N-14)
- Kd [1, 6]: 66.2 ± 0.86 nM
- Kd [1, 5]: 51 ± 0.25 nM

Molecule: CC[C@H](C)[C@@H]1NC(=O)[C@H](Cc2ccc(O)cc2)NC(=O)CSC[C@@H](C(N)=O)NC(=O)[C@H](CCC(N)=O)NC(=O)[C@H](CCCNC(=N)N)NC(=O)[C@H](Cc2c[nH]cn2)NC(=O)[C@H](CO)NC(=O)CNC(=O)[C@H](CCCNC(=O)[C@@H](N)CO)NC(=O)[C@H](Cc2c[nH]c3ccccc23)NC(=O)[C@H](Cc2ccccc2)NC(=O)[C@H]([C@@H](C)O)NC(=O)[C@H](CCCCN)NC(=O)[C@H](C(C)C)NC1=O [CP6-L8O-Ser] ({CH2CO}-YIVKTFW[Orn](Ser)GSHRQC-NH2; thioether N-14)
- Kd [1, 5]: 140 ± 120 nM

Molecule: CC[C@H](C)[C@@H]1NC(=O)[C@H](Cc2ccc(O)cc2)NC(=O)CSC[C@@H](C(N)=O)NC(=O)[C@H](CCC(N)=O)NC(=O)[C@H](CCCNC(=N)N)NC(=O)[C@H](Cc2c[nH]cn2)NC(=O)[C@H](CO)NC(=O)CNC(=O)[C@H](CCCCNC(=O)[C@@H](N)CS)NC(=O)[C@H](Cc2c[nH]c3ccccc23)NC(=O)[C@H](Cc2ccccc2)NC(=O)[C@H]([C@@H](C)O)NC(=O)[C@H](CCCCN)NC(=O)[C@H](C(C)C)NC1=O [CP6-L8K-Cys] ({CH2CO}-YIVKTFWK(Cys)GSHRQC-NH2; thioether N-14)
- Kd ([1]; Fig. 3c / Supplementary Fig. 15 series, replicate 3): 13.6 nM

Molecule: CC(C)C[C@@H]1NC(=O)[C@H](Cc2c[nH]c3ccccc23)NC(=O)[C@H]([C@@H](C)O)NC(=O)[C@H]([C@@H](C)O)NC(=O)[C@H](CO)NC(=O)[C@H](C(C)C)NC(=O)[C@H]([C@@H](C)O)NC(=O)[C@H](Cc2ccc(O)cc2)NC(=O)CSC[C@@H](C(N)=O)NC(=O)[C@H](CCC(N)=O)NC(=O)[C@H](CCCNC(=N)N)NC(=O)[C@H](Cc2c[nH]cn2)NC(=O)[C@H]([C@@H](C)O)NC(=O)CNC1=O [CP1] ({CH2CO}-YTVSTTWLGTHRQC-NH2; thioether N-14)
- Kd [1, 6]: 35.4 ± 2.11 nM

Molecule: CC(C)C[C@@H]1NC(=O)[C@H](CCCNC(=N)N)NC(=O)CNC(=O)[C@H](CCCNC(=N)N)NC(=O)[C@H](CCCNC(=N)N)NC(=O)[C@@H]2CCCN2C(=O)[C@H](Cc2ccccc2)NC(=O)CNC(=O)[C@H](CCC(=O)O)NC(=O)[C@H](CC(N)=O)NC(=O)[C@H](CC(C)C)NC(=O)[C@H]([C@@H](C)O)NC(=O)[C@H](Cc2c[nH]c3ccccc23)NC(=O)[C@H](Cc2ccc(O)cc2)NC(=O)CSC[C@@H](C(N)=O)NC1=O [CP3] ({CH2CO}-YWTLNEGFPRRGRLC-NH2; thioether N-15; N-terminus and C-terminus assumed)
- KD ([1]; replicate 1): 13500 nM
- KD ([1]; replicate 2): 5000 nM
- KD ([1]; replicate 3): 6630 nM

B1: cyclic peptide CP2 (peptide)
peptide: {CH2CO}-YRIIRVFRSWVLCPC
modifications: thioether N-13
notes: cyclic peptide selected against ADO by RaPID mRNA display; source: synthetic peptide (solid-phase peptide synthesis)
- IC50 of inhibition of ADO activity (oxidation of RGS5_(2-15), LCMS) [2]: > 50000 nM
- Kd [3]: > 5000 nM

B2: cyclic peptide CP4 (peptide)
peptide: {CH2CO}-YYYVLGTILVKRYRFC
modifications: thioether N-16
notes: as for B1
- IC50 of inhibition of ADO activity (oxidation of RGS5_(2-15), LCMS) [2]: > 50000 nM

B3: cyclic peptide CP3 (peptide)
peptide: {CH2CO}-YWTLNEGFPRRGRLC
modifications: thioether N-15
notes: as for B1
- Kd [3]: > 5000 nM

B4: cyclic peptide CP1 (peptide)
peptide: {CH2CO}-YTVSTTWLGTHRQC
modifications: thioether N-14
notes: cyclic peptide selected against ADO by RaPID mRNA display; Details of synthesis are in the supplementary methods; source: synthetic peptide (solid-phase peptide synthesis)
- IC50 of inhibition of ADO activity (oxidation of RGS5_(2-15), LCMS) [2]: 1720 nM
- Kd [3]: 35 nM

B5: cyclic peptide CP6 (peptide)
peptide: {CH2CO}-YIVKTFWLGSHRQC-NH2
modifications: thioether N-14
SMILES: CC[C@H](C)[C@@H]1NC(=O)[C@H](Cc2ccc(O)cc2)NC(=O)CSC[C@@H](C(N)=O)NC(=O)[C@H](CCC(N)=O)NC(=O)[C@H](CCCNC(=N)N)NC(=O)[C@H](Cc2c[nH]cn2)NC(=O)[C@H](CO)NC(=O)CNC(=O)[C@H](CC(C)C)NC(=O)[C@H](Cc2c[nH]c3ccccc23)NC(=O)[C@H](Cc2ccccc2)NC(=O)[C@H]([C@@H](C)O)NC(=O)[C@H](CCCCN)NC(=O)[C@H](C(C)C)NC1=O
notes: cyclic peptide selected against ADO by RaPID mRNA display; also called unmodified CP6; source: synthetic peptide (solid-phase peptide synthesis)
- IC50 of inhibition of ADO activity (oxidation of RGS5_(2-15), LCMS) [2]: 950 nM
- Kd [3]: 66 nM

Molecule: {CH2CO}-YIVKTFW[Dap]([Lys-Ser])GSHRQC (thioether N-14) [CP6-L8d-Lys-Ser]
- Kd [4]: 461 nM and 530 nM and 472 nM

Molecule: {CH2CO}-YIVKTFW[Dap]([Gly-Ser])GSHRQC (thioether N-14) [CP6-L8d-Gly-Ser]
- Kd [4]: 154 nM and 144 nM and 145 nM

B6: cyclic peptide CP5 (peptide)
peptide: {CH2CO}-YITITSWLGTLRQC
modifications: thioether N-14
notes: as for B1
- IC50 of inhibition of ADO activity (oxidation of RGS5_(2-15), LCMS) [2]: 5680 nM
- Kd [3]: 40 nM

B7: cyclic peptide CP8 (peptide)
peptide: {CH2CO}-YTYRYPSILRVWARYGC
modifications: thioether N-17
notes: as for B1
- IC50 of inhibition of ADO activity (oxidation of RGS5_(2-15), LCMS) [2]: 1730 nM
- Kd [3]: 4.7 nM
